Experimental data taken from patent US20170008971A1.

How the values were obtained:
[1] = biological target: human epidermal growth factor receptor 2 (HER2) on cells (human) (UniProt P04626); assay: competitive Scatchard analysis, 125I-trastuzumab Fab tracer on SKBR-3 cells
[2] = biological target: CD3 on Jurkat cells (human) (UniProt P07766); assay: binding to Jurkat cells (data not shown; Scatchard assay presumed)

Kd [1]: 5.4 nM | Kd [2]: 4.7 nM
Substance: HER2 T cell dependent bispecific antibody (HER2-TDB), huIgG1, knob arm humanized anti-HER2 4D5 (trastuzumab), hole arm humanized anti-CD3 UCHT1.v9
